Experimental data as given in article PMC3079584.

What was measured:
[1] = target: She2p;She3p (Saccharomyces cerevisiae;Saccharomyces cerevisiae) (UniProt P36068+P38272); assay: EMSA; conditions: EMSA: 20 mM HEPES pH 7.8, 200 mM NaCl, 2 mM MgCl2, 2 mM DTT, 4% glycerol, 30 or 100 ug/ml yeast tRNA, 5 nM RNA, 20 C; filter binding: 20 mM HEPES pH 7.4-7.5 (7.)
[2] = target: Full-length His-She3p (Saccharomyces cerevisiae) (UniProt P38272); assay: SPR; Biacore 3000, CM-5 chip, She3p amine-coupled, She2p flowed over, HNMD-buffer; steady state, Langmuir isotherm; duplicates
Sequence of Full-length His-She3p (Saccharomyces cerevisiae) (P38272 whole entry): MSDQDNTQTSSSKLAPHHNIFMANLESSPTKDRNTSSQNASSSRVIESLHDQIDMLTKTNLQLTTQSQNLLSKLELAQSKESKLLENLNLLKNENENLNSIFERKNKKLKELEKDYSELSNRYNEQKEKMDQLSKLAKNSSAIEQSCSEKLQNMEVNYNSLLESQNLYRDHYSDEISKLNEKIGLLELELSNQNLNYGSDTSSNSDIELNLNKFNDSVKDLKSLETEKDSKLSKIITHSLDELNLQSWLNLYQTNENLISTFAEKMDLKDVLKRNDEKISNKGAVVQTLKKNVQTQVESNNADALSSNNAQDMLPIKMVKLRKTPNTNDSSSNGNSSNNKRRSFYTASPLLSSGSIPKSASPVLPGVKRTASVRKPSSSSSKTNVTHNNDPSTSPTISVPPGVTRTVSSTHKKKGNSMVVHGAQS

Sequence of She2p;She3p (Saccharomyces cerevisiae;Saccharomyces cerevisiae) (P36068 whole entry, chain 1 of 2): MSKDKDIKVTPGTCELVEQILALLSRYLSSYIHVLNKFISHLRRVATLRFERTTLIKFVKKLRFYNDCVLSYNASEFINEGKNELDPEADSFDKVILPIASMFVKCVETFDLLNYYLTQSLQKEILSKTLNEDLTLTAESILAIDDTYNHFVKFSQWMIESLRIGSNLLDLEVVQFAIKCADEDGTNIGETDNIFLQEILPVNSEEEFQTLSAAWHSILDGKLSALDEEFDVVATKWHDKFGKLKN
Sequence of She2p;She3p (Saccharomyces cerevisiae;Saccharomyces cerevisiae) (P38272 whole entry, chain 2 of 2): as the sequence (P38272 whole entry) above

Kd [2] [µM]	Substance	Kd [1] [µM]
	HIV-1 TAR (length not stated)	> 1.5
2	She2p (ΔC) (from UniProt P36068 1-240) (domain or fragment)	
